Sequences and labels used below:
B1: … (peptide)
peptide: QYPFHVPLL
B2: … (peptide)
peptide: SYLNEAFSF
B3: … (peptide)
peptide: YYMELTKLLL
B4: … (peptide)
peptide: SYGTVSQIF
B5: … (peptide)
peptide: AFPTFSVQL
B6: … (peptide)
peptide: QYLDGTWSL
B7: … (peptide)
peptide: IFTDIFHYL
B8: … (peptide)
peptide: VYMNVMTRL
B9: … (peptide)
peptide: FYTLPFHLI
B10: … (peptide)
peptide: KYIGNLDLL
B11: … (peptide)
peptide: RFLMKSYSF
B12: … (peptide)
peptide: YYTQYSQTI
B13: … (peptide)
peptide: SYSEIKDFL
B14: … (peptide)
peptide: RYHPTTCTI
B15: … (peptide)
peptide: IYISNSIYF
B16: … (peptide)
peptide: AFIETPIPLF
B17: … (peptide)
peptide: LYTETRLQF
B18: … (peptide)
peptide: IYKWITDNF
B19: … (peptide)
peptide: QYLVHVNDL
B20: … (peptide)
peptide: KYIDYLMTW
B21: … (peptide)
peptide: GYIEHFSLW
B22: … (peptide)
peptide: VFTTSSNIF
B23: … (peptide)
peptide: QYLEKYYNL
B24: … (peptide)
peptide: TFITQSPLL
B25: … (peptide)
peptide: SYLTWHQQI
B26: … (peptide)
peptide: IYSVGAFENF
B27: … (peptide)
peptide: AYVIAVHLF
B28: … (peptide)
peptide: VYVPFGGKSMITF
B29: … (peptide)
peptide: VFKSEGAYF
B30: … (peptide)
peptide: GYIRGSWQF
B31: … (peptide)
peptide: RYLINSYDF
B32: … (peptide)
peptide: EYLHNCSYF
B33: … (peptide)
peptide: RYPALFPVL
B34: … (peptide)
peptide: AFGQETNVPLNNF
B35: … (peptide)
peptide: AYAANVHYL
B36: … (peptide)
peptide: GYIKLINFI
B37: … (peptide)
peptide: TYLEKIDGF
B38: … (peptide)
peptide: VYGVPTPHF
B39: … (peptide)
peptide: VFASLPGFLF
B40: … (peptide)
peptide: TYTFLKETF
B41: … (peptide)
peptide: VFIFKGNEF
B42: … (peptide)
peptide: IYAGVGEFSF
B43: SYGTVSQI (peptide)
peptide: SYGTVSQI
B44: … (peptide)
peptide: QYILAVPVL
B45: … (peptide)
peptide: NYLDVATFL
B46: … (peptide)
peptide: AYAQLGYLLF
B47: … (peptide)
peptide: AFADVSVKF
B48: … (peptide)
peptide: VYSSQFETI
B49: … (peptide)
peptide: VYEAMVPLF
B50: … (peptide)
peptide: RYLTISNLQF
B51: … (peptide)
peptide: LFITGGQFF
B52: … (peptide)
peptide: VYPFDWQYI
B53: … (peptide)
peptide: KYPASSSVF
B54: … (peptide)
peptide: RYKPGEPITF
B55: … (peptide)
peptide: RYFDVGLHNF
B56: … (peptide)
peptide: KYTEKLEEI
B57: … (peptide)
peptide: VYVIEPHSMEF
B58: … (peptide)
peptide: KYTDYILKI
B59: … (peptide)
peptide: QYTPHSHQF
B60: … (peptide)
peptide: VYTHEVVTL
B61: … (peptide)
peptide: VYTPVASRQSL
B62: … (peptide)
peptide: QYIEELQKF
B63: … (peptide)
peptide: AYLPPLQQVF
B64: … (peptide)
peptide: TFSDVEAHF
B65: … (peptide)
peptide: RFIGIPNQF
B66: … (peptide)
peptide: VYIAELEKI
B67: … (peptide)
peptide: GYISNGELF
B68: … (peptide)
peptide: IYGEKTYAF

Where only a bound is given, the exact number is not on record here.

In the first test the target is HLA-A*24 (human). Description: UV-exchange ELISA (anti-b2m); yield >=75%. For orientation: In an ELISA, binding on a coated surface is turned into a signal by an enzyme label.
Regarding B1, the peptide exchange yield is over 75%.
For B2, the peptide exchange yield is over 75%.
Same read-out and setting: under B3 stands over 75%.
On to B4, for which the peptide exchange yield was over 75%.
B5 yielded a peptide exchange yield of over 75%.
Molecule B6 returned a peptide exchange yield of over 75%.
B7 had a peptide exchange yield of over 75%.
As to B8, the peptide exchange yield was over 75%.
B9 gave a peptide exchange yield of over 75%.
For the molecule B10, the peptide exchange yield is over 75%.
B11 displayed a peptide exchange yield of over 75%.
With B12, the peptide exchange yield is over 75%.
Molecule B13 gave a peptide exchange yield of over 75%.
On to B14, for which the peptide exchange yield is over 75%.
On the same count and under the same terms, under B15 stands over 75%; under B16, over 75%.
For B17, the peptide exchange yield was over 75%.
For the molecule B18, the peptide exchange yield was over 75%.
The same measure, in the same setting: next, B19: over 75%.
Consider B20, for which the peptide exchange yield was over 75%.
B21: the peptide exchange yield is over 75%.
In turn, B22 gave a peptide exchange yield of over 75%.
B23 showed a peptide exchange yield of over 75%.
For the molecule B24, the peptide exchange yield is over 75%.
In the case of B25, the peptide exchange yield is over 75%.
B26: the peptide exchange yield was over 75%.
In turn, B27 came in with a peptide exchange yield of over 75%.
Same read-out and setting: under B28 stands over 75%; under B29, over 75%; under B30, over 75%.
Still for that read-out and setting: next, B31: over 75%; B32: over 75%.
Consider B33, for which the peptide exchange yield was over 75%.
In turn, B34 gave a peptide exchange yield of over 75%.
Take B35: the peptide exchange yield is over 75%.
For B36, the peptide exchange yield is over 75%.
Same read-out and setting: under B37 stands over 75%; under B38, over 75%.
As to B39, the peptide exchange yield is over 75%.
B40: the peptide exchange yield was over 75%.
Take B41: the peptide exchange yield is over 75%.
With B42, the peptide exchange yield is over 75%.
On the same count and under the same terms, next, B43: over 75%.
The molecule B44 showed a peptide exchange yield of over 75%.
As to B45, the peptide exchange yield was over 75%.
Same read-out and setting: next, B46: over 75%.
Molecule B47 returned a peptide exchange yield of over 75%.
B48 yielded a peptide exchange yield of over 75%.
In turn, B49 registered a peptide exchange yield of over 75%.
As for B50, the peptide exchange yield was over 75%.
Turning to B51, the peptide exchange yield was over 75%.
As to B52, the peptide exchange yield was over 75%.

A further test has as its target HLA-A*24 (human). Description: UV-exchange ELISA (anti-b2m); yield 50%-75%.
For B53, the peptide exchange yield lay in the range of 50 to 75%.
The same measure, in the same setting: under B54 stands 50 to 75%.
As to B55, the peptide exchange yield was in the range of 50 to 75%.
Same read-out and setting: under B56 stands 50 to 75%; under B57, 50 to 75%; under B58, 50 to 75%.
Same read-out and setting: under B59 stands 50 to 75%; under B60, 50 to 75%.
The molecule B61 displayed a peptide exchange yield of 50 to 75%.
For B62, the peptide exchange yield is 50 to 75%.
For B63, the peptide exchange yield is 50 to 75%.
For B64, the peptide exchange yield lay in the range of 50 to 75%.
In the case of B65, the peptide exchange yield was in the range of 50 to 75%.
Still for that read-out and setting: under B66 stands 50 to 75%; under B67, 50 to 75%.
B68 came in with a peptide exchange yield of 50 to 75%.

(Values after patent publication US20170056486A1.)
